Source: paper PMC4741518, “Adaptive Remodeling of the Bacterial Proteome by Specific Ribosomal Modification Regulates Pseudomonas Infection and Niche Colonisation” (PLoS Genetics, 2016)

Legend:
RimA = molecular target: T1, RimA (Pseudomonas fluorescens, UniProt A0ACD4XU64); test: phosphodiesterase assay, TLC of […]-cdG; type: biochemical; details: labelled compound (100 μM cdG with 0.07 μM 32P-cdG); 10 mM MgCl2, pH 8.0, 30 °C; product pGpG
T1 construct: gene U0037_01330; full-length, His6-tagged (pETM11-rimA), E. coli BL21(DE3) pLysS, Ni-NTA purified

[1] = molecular target: Ribosomal protein S6 modification protein RimK (P. fluorescens SBW25)
Chain of Ribosomal protein S6 modification protein RimK (P. fluorescens SBW25) (C3KE61 whole entry): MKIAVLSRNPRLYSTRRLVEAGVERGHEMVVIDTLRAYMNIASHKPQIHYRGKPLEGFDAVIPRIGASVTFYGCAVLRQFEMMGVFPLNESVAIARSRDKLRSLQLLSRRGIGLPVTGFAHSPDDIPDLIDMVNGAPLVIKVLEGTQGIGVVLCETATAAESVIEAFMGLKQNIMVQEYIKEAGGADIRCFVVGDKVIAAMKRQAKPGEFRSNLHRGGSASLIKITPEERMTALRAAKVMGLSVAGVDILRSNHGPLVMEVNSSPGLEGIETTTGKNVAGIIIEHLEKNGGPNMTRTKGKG

T1 sequence (A0ACD4XU64 entry or part of it): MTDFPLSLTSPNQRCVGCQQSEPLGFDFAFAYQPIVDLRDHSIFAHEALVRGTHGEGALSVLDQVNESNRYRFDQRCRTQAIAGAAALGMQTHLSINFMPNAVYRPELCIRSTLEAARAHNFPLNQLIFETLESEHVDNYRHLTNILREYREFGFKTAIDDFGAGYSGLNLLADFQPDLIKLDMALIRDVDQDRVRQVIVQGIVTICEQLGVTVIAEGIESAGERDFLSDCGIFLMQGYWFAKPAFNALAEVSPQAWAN

Nc1nc2c(ncn2[C@@H]2O[C@@H]3COP(=O)(O)O[C@H]4[C@@H](O)[C@H](n5cnc6c(=O)[nH]c(N)nc65)O[C@@H]4COP(=O)(O)O[C@H]3[C@H]2O)c(=O)[nH]1 [cdG]
phosphodiesterase assay, TLC of 32P-cdG (RimA): RimA PDE activity was subsequently confirmed (Fig 4C)

Putative uncharacterized protein RimB (natural protein)
RimKPf ATPase activity (linked PK/LDH assay, with glutamate): Vmax on addition of purified RimB; 113.6 without RimB [1]: 691 nmol/min/mg

Conserved EAL domain protein RimA (enzyme)
RimKPf ATPase activity (linked PK/LDH assay, with glutamate): Vmax on addition of purified RimA; 234.9 without RimA [1]: 364 nmol/min/mg
